From US5882644A, “Monoclonal antibodies specific for the platelet derived growth factor β receptor and methods of use thereof” (Protein Design Labs, Inc., priority 1996, dated 1999)
Positions count from the first letter of the chain named. “Also recorded” adds a separate entry of the source. Values belong to the molecule of their own block, whether it stands above or below them.

Columns and labels:
[1] = system: PDGF-R β expressed on the cell membrane; assay: Flow cytometry binding to CHO PDGF-R β transfectant cells; set-up: species or system human; conditions: 0.1-1 μg/ml antibody; CHO PDGF-R β transfectants vs untransfected CHO
Description: The cells were washed once in cold PBS and resuspended in 50 μl of PBS containing 10 μg/ml FITC-conjugated goat anti-mouse IgG and incubated for 30 min. After another wash, the cells were fixed by resuspension in 0.25 ml of paraformaldehyde in PBS, and analyzed for fluorescence by flow cytometry on a FACScan (Becton Dickinson).

[2] = system: PDGF-R β; assay: Competitive binding with 125I-PDGF BB on transfectant cells expressing PDGF-R β; set-up: species or system human; conditions: 4° C.
Description: To determine the ability of muM4TS.11 and muM4TS.22 to block binding of PDGF BB to PDGF-R β, the following competitive binding experiments were performed. Transfectant cells expressing PDGF-R β were harvested, washed twice with cold DMEM, and resuspended at 10^6 cells/ml in DMEM. The assay was carried out in triplicate by incubating 100 μl of the cell suspension with either: 1) no antibody (to determine total binding); 2) varying concentrations of antibody; or 3) 100 ng cold PDGF BB (to saturate specific binding sites and determine non-specific binding) for 15 minutes at 4° C. Each sample received 1.0 ng ^125 I-labeled PDGF BB, and was incubated for an additional 60 min at 4° C. Unbound ^125 I-labeled PDGF BB was separated from that bound to the cell by layering the sample over a mixture of 80% dibutylphthalate, 20% olive oil in a microfuge tube, and microfuging briefly to pellet the cells through the oil mixture. The tubes were placed in dry ice to freeze the contents, the tip of the tube containing the cell pellet was cut off into a vial, and radioactivity was determined in a gamma counter.
To assess the ability of HuM4TS.22 to block the binding of PDGF BB to its receptor, competitive binding experiments of HuM4TS.22 with ^125 I-PDGF BB were performed according to the method described in Example 3.
To assess the ability of muM4TS.11 and HuM4TS.11 to block the binding of PDGF BB to the PDGF β receptor, competitive binding experiments of these antibodies with ^125 I-PDGF BB were performed according to the method described in Example 3.

[3] = system: PDGF-R β; assay: Competition with 125I-labeled murine antibody tracer on Sp2/0 PDGF-R β transfectant cells; format: binding, human; conditions: Sp2/0 PDGF-R β transfectants; for binding affinity Ka: calculated from competitive binding data
Description: To assess the ability of HuM4TS.22 to compete with muM4TS.22 for receptor binding, increasing concentrations of the two antibodies were respectively incubated on ice for one hour with Sp2/0 PDGF-R β transfectant cells and a fixed amount of tracer ^125 I-labeled muAb. The sample tubes were processed as in the blocking experiment just described.
To assess the ability of HuM4TS.11 to compete with the muAb for receptor binding, increasing concentrations of the two antibodies were respectively incubated on ice for one hour with Sp2/0 PDGF-R β transfectant cells and a fixed amount of tracer ^125 I-labeled M4TS.11. The sample tubes were processed as in the blocking experiment described. […] The binding affinities calculated from the data were: Ka =5×10^8 M^-1 for the muAb and 3×10^7 M^-1 for the HuAb.

[4] = system: CHO transfectant cell line expressing PDGF-R β (CHO C4); assay: Inhibition of PDGF BB-induced proliferation (3H-thymidine) of CHO C4 cells; format: cell-based, Chinese hamster; conditions: for inhibition of PDGF BB-induced proliferation: 50 ng/ml PDGF BB, sufficient antibody concentration
Description: To determine the ability of muM4TS.11 and muM4TS.22 to block PDGF-mediated proliferation, a CHO transfectant cell line expressing PDGF-R β (CHO C4) was generated, as described above. Proliferation of this line, as measured by incorporation of ^3 H-thymidine by DNA synthesis, is stimulated several-fold by PDGF BB. The CHO PDGF-R β transfectants were plated in a 96-well tissue culture plate at about 50,000 cells/well in Ham's F-12+10% FCS and incubated for 1-2 days. The medium was removed, and the cells were washed once with serum-free medium (Ham's F-12+1 mg/ml BSA) and incubated in this media for 1-2 days to put them in a quiescent state. The appropriate amount of antibody in serum-free medium was added, and after 1-3 hours, 50 ng/ml PDGF BB was added. After overnight incubation, 1 μCi ^3 H-thymidine was added, and after a final 4 hour incubation, the cells were harvested using a PHD cell harvester (Cambridge Technology) and analyzed with a scintillation counter.

[5] = system: human primary fibroblast cell line AG1523B; assay: Inhibition of PDGF BB-stimulated proliferation of AG1523B fibroblasts; format: cell-based; conditions: 300 ng/ml PDGF BB
[6] = system: PDGF-R β deletion fusion proteins; assay: ELISA epitope mapping with PDGF-R β deletion fusion proteins; format: binding, human; conditions: for binding to protein D5 (fifth domain only): separate experiment
Excerpt: To localize the binding sites of the M4TS antibodies on the PDGF-R, a series of PDGF-R β deletion mutants, each consisting of one or more adjacent domains of the extracellular portion of the receptor, was constructed by standard methods including PCR. The deletion constructs were each cloned into an expression plasmid (FIG. 13A) where they were fused to the constant region of the human lambda-1 immunoglobulin light chain, to facilitate detection in ELISA. The constructs were as follows (see FIG. 13B):
These PDGF-R β deletion fusion proteins were transiently expressed, by transfecting 10 μg of the respective expression plasmids into approximately 10^7 S194 mouse myeloma cells (ATCC TIB 19) using the DEAE-dextran method in accordance with the method described by Queen et al. (1984) Mol. Cell. Biol. 4:1042. After the transfected cells had died (4-5 days) and been removed by centrifugation, the culture supernatants containing the PDGF-R β deletion proteins were used in ELISA assays, 100 μl/well. First, the relative levels of the various PDGF-R β deletion proteins were measured in an ELISA where the plate was coated with goat anti-human lambda antibody (Tago) and the proteins detected with HRP-conjugated goat anti-human lambda antibody. […] To determine the ability of the antibodies to bind to each deletion protein, an ELISA was performed in which goat anti-human lambda antibody was used to coat the plate, followed by the cell supernatant and then 0.1 μg of the appropriate antibody, and then bound antibody detected with HRP-conjugated goat-anti-mouse Ig or goat-anti-human Ig antibody as appropriate (Tago). As a positive control, purified soluble PDGF-R β (Example 1) was coated directly on certain wells of the plate (denoted D1-5 in FIG. 14).

[7] = system: PDGF-R β; assay: Flow cytometry (FACS) staining of Sp2/0 transfectant cells expressing PDGF-R β; format: binding, human; conditions: 50 ng antibody; vs untransfected Sp2/0 cells
Description: The cells were washed with cold PBS, incubated for an additional 30 minutes with FITC-labeled goat-anti-human Ig (Tago Immunologicals) and analyzed by flow cytometry (FACS).
The cells were washed with cold PBS, incubated for an additional 30 minutes with FITC-labeled goat-anti-human Ig (Tago Immunologicals) and analyzed by flow cytometry (FACS). […] Neither an irrelevant control antibody nor the FITC-labeled goat antibody alone stained either cell type.

binding to deletion proteins containing only first through second domains ([6]; 0.1 μg antibody): do not bind
binding to protein D1-3 ([6]; 0.1 μg antibody): do bind to protein D1-3
binding to protein D3 (third domain only) ([6]; 0.1 μg antibody): bind to the protein D3
B1: muM4TS.22: murine monoclonal antibody to PDGF-R β, variable regions SEQ ID NOS:2 and 4; epitope in third extracellular domain (antibody, V domains shown)
VL: MRVLAELLGLLLFCFLGVRCDIQMNQSPSSLSASLGDTITITCHASQNINVWLSWYQRKPGNIPKLLIYKASNLHTGVPSRFSGSGSGTGFTLTISSLQPEDIATYYCQQGQSFPFTFGSGTKLEIK
VH: MAVLALLLCLVTFPSCALSQVQLKESGPGLVAPSQSLSITCTVSGFSLTNYAINWVRQPPGQGLEWLGIIWTGGGTSYNSALKSRLSISKDNSKSQVFLKMNSLQTDDTARYYCARTGTRGYFFDYWGQGTTLTVSS
specific binding to membrane PDGF-R β by flow cytometry [1]: specifically bound to CHO PDGF-R β transfectant cells but not to untransfected CHO cells
blocking of 125I-PDGF BB binding to PDGF-R β [2]: competitively blocked binding of PDGF BB to PDGF-R β; also recorded: did have the ability to block binding of PDGF BB to PDGF-R β
competition with labeled murine antibody for receptor binding / binding affinity, in words [3]: competed with equal efficiencies
binding affinity Ka [3]: 2.6e+08 M⁻¹
inhibition of PDGF BB-induced proliferation [4]: completely inhibited proliferation of the cells induced by PDGF BB; also recorded: almost completely inhibited the stimulation of proliferation by PDGF BB
inhibition of stimulation of proliferation by PDGF BB [5]: effectively inhibited the stimulation of proliferation by PDGF BB
binding to protein D5 (fifth domain only) [6]: none of muM4TS.11 and HuM4TS.11, muM4TS.22 and HuM4TS.22 bound to it

binding to deletion proteins containing only first through second domains ([6]; 0.1 μg antibody): do not bind
binding to protein D1-3 ([6]; 0.1 μg antibody): do bind to protein D1-3
binding to protein D3 (third domain only) ([6]; 0.1 μg antibody): bind to the protein D3
B2: HuM4TS.22: humanized muM4TS.22, human IC4 framework, gamma4 constant region; SEQ ID NOS:6 and 8 (antibody, V domains shown)
VL: B1 VL with N25T, L35V, T38R, I39V, R58Q, N62K, I63A, S120G, L124V
VH: MAVLALLLCLVTFPSCALSQVQLQESGPGLVKPSETLSLTCTVSGFSLTNYAINWVRQPPGKGLEWLGIIWTGGGTSYNSALKSRLTISKDTSKNQVSLKLSSVTAADTAVYYCARTGTRGYFFDYWGQGTLVTVSS
FACS staining of Sp2/0 PDGF-R β transfectant cells [7]: stained the transfectant cells but did not stain untransfected Sp2/0 cells at all
blocking of 125I-PDGF BB binding to PDGF-R β [2]: reduced the binding of radiolabelled PDGF BB ligand to the PDGF-R β transfectant cells to the non-specific level; also recorded: did have the ability to block binding of PDGF BB to PDGF-R β
competition with labeled murine antibody for receptor binding / binding affinity, in words [3]: competed with equal efficiencies
binding affinity Ka [3]: 4e+08 M⁻¹
inhibition of PDGF-mediated proliferation compared with another antibody [4]: about equally as well as muM4TS.22
inhibition of PDGF BB-induced proliferation [4]: almost completely inhibited the stimulation of proliferation by PDGF BB
binding to protein D5 (fifth domain only) [6]: none of muM4TS.11 and HuM4TS.11, muM4TS.22 and HuM4TS.22 bound to it

binding to deletion proteins containing only first through third domains ([6]; 0.1 μg antibody): do not bind
binding to protein D1-4 ([6]; 0.1 μg antibody): do bind to protein D1-4
B3: HuM4TS.11: humanized muM4TS.11, human III-2R framework, gamma4 constant region; SEQ ID NOS:14 and 16 (antibody, V domains shown)
VL: METDTLLLWVLLLWVPGSTGDIQMTQSPSSLSASVGDRVTITCRASESVDSYGNSFMHWYQQKPGKAPKLLIYRASNLESGIPSRFSGSGSRTDFTLTISSLQPEDVATYYCQQSNEDPPTFGQGTKVEIK
VH: MGWSWIFLFLLSGTAGVHSQVQLVQSGAEVKKPGASVKVSCKASGYTFTNCWMHWVRQAPGQGLEWIGYINPTTGYSEYNQNFKDKATITADKSTSTAYMELSSLRSEDTAVYYCTSNYGHYDWFGNWGQGTLVT
FACS staining of Sp2/0 PDGF-R β transfectant cells [7]: stained the transfectant cells but did not stain untransfected Sp2/0 cells at all
blocking of 125I-PDGF BB binding to PDGF-R β [2]: neither muM4TS.11 nor HuM4TS.11 were able to inhibit binding of PDGF BB to its receptor
competition with labeled murine antibody for receptor binding / binding affinity, in words [3]: competed less well than muM4TS.11
binding affinity Ka [3]: 3e+07 M⁻¹
inhibition of PDGF-mediated proliferation compared with another antibody [4]: nearly as well as muM4TS.11; also recorded: about equally well
inhibition of PDGF BB-induced proliferation [4]: almost completely inhibited the stimulation of proliferation by PDGF BB
binding to protein D5 (fifth domain only) [6]: none of muM4TS.11 and HuM4TS.11, muM4TS.22 and HuM4TS.22 bound to it
